This is an account of results in US20190211057A1 (NATIONAL YANG MING UNIVERSITY, published 2019).

By Kd is commonly meant the free concentration of one partner at which half of the binding sites on the other are occupied at equilibrium, for simple one-to-one binding.

Assay [1] has as its target T1, integrin αvβ3 receptor on cells (HUVEC, U87MG, MCF-7, ES-2-luc) (human, UniProt P06756 31-1048; P05106 27-788). Briefly: cell-based or functional assay.
In assay [2] the target is T1, integrin αvβ3 receptor on cells (HUVEC, …). In words: cell ELISA on MCF-7 cells (low αvβ3 expression), anti-His-HRP.
Description: (§1) After reacted with anti-His-HRP antibody and TMB substrate, ELISA reader (OD450 nm) is used to detect the amount of recombinant protein bound to the cells, and the binding curve is drawn. The nonlinear curve of the prism software is used to make a diagram and calculate the dissociation constant (Kd).
(§2) The anti-His6-Tag-HRP antibody and TMB show the color reagent to detect the amount of recombinant protein bound to the cell, then the dissociation constant Kd value of the recombinant protein and the integrin αᵥβ₃ receptor is calculated and a binding curve is drawn.
Assay [3] shares this target. Briefly: cell ELISA, HUVEC against MCF-7. On the technique in general: An ELISA detects its analyte on a solid surface through an enzyme-linked reagent.
Assay [4] shares this target. In words: cell ELISA on HUVEC cells, anti-His-HRP.
Description: as §1, §2
Assay [5] has the same target. Briefly: cell ELISA on U87MG cells, anti-His-HRP.
Description: as §1, §2
Assay [6] addresses T2, integrin αvβ3 receptor (UniProt P06756 31-992; P05106 27-718).
T2 construct: also called αvβ3 integrin; αvβ3 integrin receptor
Briefly: ELISA on integrin αvβ3 receptor, anti-His6-HRP detection, curve fit.
Description: (§3) The dissociation constant Kd is obtained by prism software with curve fitting method.

The target in assay [7] is T1, integrin αvβ3 receptor on cells (HUVEC, …). Briefly: cell ELISA, U87MG against MCF-7.
For assay [8] the target is unchanged. In words: immunofluorescence on U87MG and HUVEC cells, no anti-His6tag signal.
Description: Immunofluorescence is used to observe the distribution of the protein bound with cell in the cell.
For assay [9], the target named is T2, integrin αvβ3 receptor. In words: ELISA on integrin αvβ3 receptor, anti-His6-HRP; paragraph 61 says yCD and yCD/UPRT cannot be bound to integrin αvβ3.
Description: as §3
The target in assay [10] is T2, integrin αvβ3 receptor. In words: ELISA on integrin αvβ3 receptor, one site-specific binding fit.
Description: The curve and receptor binding ability parameters (see FIG. 19 and Table 14) are fitted by the binding ability of DTPA-modified protein and integrin αᵥβ₃ receptor through the One site-Specific binding formula in the Graph prism program.
The target of assay [11] is T2, integrin αvβ3 receptor. In words: ELISA on integrin αvβ3 receptor (repeats Table 14).
Assay [12] has as its target T1, integrin αvβ3 receptor on cells (HUVEC, …). In words: cell-based or functional assay. The source holds these as a separate data set.
In assay [13] the target is T2, integrin αvβ3 receptor. In words: ELISA on αvβ3 integrin receptor.
Assay [14] concerns the target T1, integrin αvβ3 receptor on cells (HUVEC, …). Briefly: cell-based or functional assay. The source holds these as a separate data set.
Assay [15] shares this target. In words: cell ELISA on fixed U87MG cells, anti-His6tag-HRP.
Assay [16] has the same target. Briefly: cell ELISA on fixed MCF-7 cells (low αvβ3 expression), anti-His6tag-HRP.
The target is the same in assay [17]. In words: cell ELISA on fixed HUVEC cells, anti-His6tag-HRP.

Changes are numbered by the printed parent chain. Numbers in names are those of the source. A value given as a limit tells only on which side of the number the result lay.

T1 sequence (P06756 31-1048, chain 1 of 2): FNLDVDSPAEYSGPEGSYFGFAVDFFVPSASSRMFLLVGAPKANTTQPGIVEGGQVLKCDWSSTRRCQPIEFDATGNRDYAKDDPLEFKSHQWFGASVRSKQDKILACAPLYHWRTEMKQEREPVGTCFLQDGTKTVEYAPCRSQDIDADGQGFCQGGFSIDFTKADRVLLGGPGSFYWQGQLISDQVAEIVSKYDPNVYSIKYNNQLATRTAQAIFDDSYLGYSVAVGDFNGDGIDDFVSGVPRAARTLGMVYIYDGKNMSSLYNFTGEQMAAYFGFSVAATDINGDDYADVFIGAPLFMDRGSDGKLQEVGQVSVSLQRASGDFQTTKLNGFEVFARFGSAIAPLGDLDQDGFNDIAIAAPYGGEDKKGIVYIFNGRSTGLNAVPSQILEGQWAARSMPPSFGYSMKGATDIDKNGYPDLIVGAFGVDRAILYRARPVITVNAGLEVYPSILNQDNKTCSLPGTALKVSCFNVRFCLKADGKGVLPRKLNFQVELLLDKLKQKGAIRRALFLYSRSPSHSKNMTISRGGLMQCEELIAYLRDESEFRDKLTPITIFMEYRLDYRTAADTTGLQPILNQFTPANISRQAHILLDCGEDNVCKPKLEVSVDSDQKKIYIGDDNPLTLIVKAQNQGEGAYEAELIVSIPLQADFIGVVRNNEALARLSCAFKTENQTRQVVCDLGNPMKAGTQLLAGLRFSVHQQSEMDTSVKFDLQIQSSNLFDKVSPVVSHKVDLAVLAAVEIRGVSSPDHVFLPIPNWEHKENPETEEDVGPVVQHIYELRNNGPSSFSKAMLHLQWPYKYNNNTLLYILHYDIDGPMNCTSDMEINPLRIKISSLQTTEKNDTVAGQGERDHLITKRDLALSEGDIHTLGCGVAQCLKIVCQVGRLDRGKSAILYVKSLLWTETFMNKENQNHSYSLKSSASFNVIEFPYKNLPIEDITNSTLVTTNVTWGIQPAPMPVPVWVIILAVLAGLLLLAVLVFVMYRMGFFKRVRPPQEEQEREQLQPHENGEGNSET
T1 sequence (P05106 27-788, chain 2 of 2): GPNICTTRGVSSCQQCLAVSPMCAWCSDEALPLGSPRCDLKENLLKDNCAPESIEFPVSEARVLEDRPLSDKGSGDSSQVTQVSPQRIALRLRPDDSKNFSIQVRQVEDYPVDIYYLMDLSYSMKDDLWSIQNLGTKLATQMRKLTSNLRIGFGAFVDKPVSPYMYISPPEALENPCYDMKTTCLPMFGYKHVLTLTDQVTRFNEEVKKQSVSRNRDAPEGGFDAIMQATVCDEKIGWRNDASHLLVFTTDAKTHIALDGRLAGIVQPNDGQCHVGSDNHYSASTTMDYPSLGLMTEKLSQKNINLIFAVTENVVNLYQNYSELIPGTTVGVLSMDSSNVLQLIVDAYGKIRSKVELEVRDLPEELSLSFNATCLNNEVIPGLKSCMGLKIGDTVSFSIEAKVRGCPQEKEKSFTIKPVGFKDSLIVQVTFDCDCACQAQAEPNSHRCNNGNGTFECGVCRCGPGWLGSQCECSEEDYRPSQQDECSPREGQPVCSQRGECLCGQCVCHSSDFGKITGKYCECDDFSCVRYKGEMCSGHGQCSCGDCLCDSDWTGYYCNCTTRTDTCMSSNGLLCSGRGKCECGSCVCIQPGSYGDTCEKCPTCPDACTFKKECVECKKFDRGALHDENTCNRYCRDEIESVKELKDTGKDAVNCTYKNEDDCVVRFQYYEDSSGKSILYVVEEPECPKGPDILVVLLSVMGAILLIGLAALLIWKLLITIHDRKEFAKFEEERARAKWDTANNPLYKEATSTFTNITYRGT
T2 sequence (P06756 31-992, chain 1 of 2): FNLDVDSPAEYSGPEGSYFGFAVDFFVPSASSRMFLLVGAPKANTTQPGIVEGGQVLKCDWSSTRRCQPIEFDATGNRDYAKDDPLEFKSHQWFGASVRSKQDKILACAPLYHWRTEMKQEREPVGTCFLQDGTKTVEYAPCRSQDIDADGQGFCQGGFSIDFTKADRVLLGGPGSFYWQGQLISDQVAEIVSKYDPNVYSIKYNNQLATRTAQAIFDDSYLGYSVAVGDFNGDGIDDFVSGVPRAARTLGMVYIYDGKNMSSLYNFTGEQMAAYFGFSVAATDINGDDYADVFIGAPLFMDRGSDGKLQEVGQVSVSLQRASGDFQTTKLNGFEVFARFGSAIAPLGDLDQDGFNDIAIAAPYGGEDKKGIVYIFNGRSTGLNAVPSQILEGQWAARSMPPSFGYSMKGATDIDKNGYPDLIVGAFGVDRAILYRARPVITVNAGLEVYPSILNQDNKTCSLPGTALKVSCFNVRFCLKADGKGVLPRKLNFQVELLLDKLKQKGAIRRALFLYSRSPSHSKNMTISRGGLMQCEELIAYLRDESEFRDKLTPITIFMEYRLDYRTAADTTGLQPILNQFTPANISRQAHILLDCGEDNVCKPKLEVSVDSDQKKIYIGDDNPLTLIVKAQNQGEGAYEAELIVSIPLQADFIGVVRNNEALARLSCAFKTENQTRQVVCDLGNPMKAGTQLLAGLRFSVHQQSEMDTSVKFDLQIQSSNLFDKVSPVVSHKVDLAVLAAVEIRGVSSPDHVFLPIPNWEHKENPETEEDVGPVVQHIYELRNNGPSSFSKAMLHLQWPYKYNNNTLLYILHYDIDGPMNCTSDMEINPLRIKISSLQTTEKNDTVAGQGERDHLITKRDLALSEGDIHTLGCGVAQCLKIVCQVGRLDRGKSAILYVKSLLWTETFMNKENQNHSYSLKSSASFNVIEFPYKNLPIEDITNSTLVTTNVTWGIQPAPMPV
T2 sequence (P05106 27-718, chain 2 of 2): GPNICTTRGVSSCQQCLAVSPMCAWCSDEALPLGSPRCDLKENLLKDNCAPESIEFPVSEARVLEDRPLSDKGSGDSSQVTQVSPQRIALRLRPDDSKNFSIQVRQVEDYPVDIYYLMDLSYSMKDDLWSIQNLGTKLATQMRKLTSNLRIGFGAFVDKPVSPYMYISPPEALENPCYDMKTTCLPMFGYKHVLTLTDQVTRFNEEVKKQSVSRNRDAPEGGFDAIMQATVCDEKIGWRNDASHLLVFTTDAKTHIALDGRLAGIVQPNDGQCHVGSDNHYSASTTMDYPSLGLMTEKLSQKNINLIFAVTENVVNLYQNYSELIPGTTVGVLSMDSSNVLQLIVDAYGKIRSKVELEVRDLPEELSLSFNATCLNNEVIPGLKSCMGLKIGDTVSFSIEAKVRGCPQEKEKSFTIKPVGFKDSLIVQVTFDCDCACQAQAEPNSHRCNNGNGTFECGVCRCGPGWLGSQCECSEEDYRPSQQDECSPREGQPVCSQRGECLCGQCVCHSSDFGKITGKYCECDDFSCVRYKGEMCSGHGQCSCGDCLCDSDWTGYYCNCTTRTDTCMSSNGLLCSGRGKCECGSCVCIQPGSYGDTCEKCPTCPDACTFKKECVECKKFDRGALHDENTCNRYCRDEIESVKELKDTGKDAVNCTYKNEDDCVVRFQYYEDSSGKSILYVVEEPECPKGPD

B1: RGD4C-yCD/UPRT (other)
chain: MACDCRGDCFCVTGGMASKWDQKGMDIAYEEAALGYKEGGVPIGGCLINNKDGSVLGRGHNMRFQKGSATLHGEISTLENCGRLEGKVYKDTTLYTTLSPCDMCTGAIIMYGIPRCVVGENVNFKSKGEKYLQTRGHEVVVVDDERCKKIMKQFIDERPQDWFEDIGEASEPFKNVYLLPQTNQLLGLYTIIRNKNTTRPDFIFYSDRIIRLLVEEGLNHLPVQKQIVETDTNENFEGVSFMGKICGVSIVRAGESMEQGLRDCCRSVRIGKILIQRDEETALPKLFYEKLPEDISERYVFLLDPMLATGGSAIMATEVLIKRGVKPERIYFLNLICSKEGIEKYHAAFPEVRIVTGALDRGLDENKYLVPGLGDFGDRYYCVLEHHHHHH
notes: Fusion of the RGD4C peptide, yCD and yeast UPRT; His6-tagged recombinant protein; also called RGD4C-yCD/UPRPT
Consider B1, for which the “IC50 of 5-FC, MTT cytotoxicity, HUVEC cells incubated with 500 nM protein then washed” value in assay [1] is 8.6 µM. For the same molecule, in assay [1], the “IC50 of 5-FC, MTT cytotoxicity, MCF-7 cells (low αvβ3) incubated with 500 nM protein then washed” value turned out to be 4340 µM. Besides, the “IC50 of 5-FC, MTT cytotoxicity, U87MG cells incubated with 500 nM protein then washed” value in assay [1] came to 5.1 µM. The Kd in assay [2] is 0.335 µM; in assay [4], 0.0483 µM; in [5] it was 0.0578 µM; with integrin αvβ3 receptor [6], 0.0417 µM. Moreover, the “fold cell binding ability against MCF-7” value in [3] was ~6.9 fold; in assay [7], ~5.8 fold.

B2: EcCD_WT (enzyme, E. coli)
chain: MSNNALQTIINARLPGEEGLWQIHLQDGKISAIDAQSGVMPITENSLDAEQGLVIPPFVEPHIHLDTTQTAGQPNWNQSGTLFEGIERWAERKALLTHDDVKQRAWQTLKWQIANGIQHVRTHVDVSDATLTALKAMLEVKQEVAPWIDLQIVAFPQEGILSYPNGEALLEEALRLRADVVGAIPHFEFTREYGVESLHKTFALAQKYDRLIDVHCDEIDDEQSRFVETVAALAHHEGMGARVTASHTTAMHSYNGAYTSRLFRLLKMSGINFVANPLVNIHLQGRFDTYPKRRGITRVKEMLESGINVCFGHDDVFDPWYPLGTANMLQVLHMGLHVCQLMGYGQINDGLNLITHHSARTLNLQDYGIAAGNSANLIILPAENGFDALRRQVPVRYSVRGGKVIASTQPAQTTVYLEQPEAIDYKRLEHHHHHH
notes: Control without RGD4C; also called E. coli cytosine deaminase (EcCD) wild type
Turning to B2, the binding result in [8] is reported as “no binding”.

B3: EcCD_D314A (enzyme)
chain: B2 chain with D315A
notes: Control without RGD4C; also called E. coli cytosine deaminase D314A mutant
Take B3: in [8], the binding result was “no binding”.

B4: yCD/UPRT (enzyme)
chain: MVVTGGMASKWDQKGMDIAYEEAALGYKEGGVPIGGCLINNKDGSVLGRGHNMRFQKGSATLHGEISTLENCGRLEGKVYKDTTLYTTLSPCDMCTGAIIMYGIPRCVVGENVNFKSKGEKYLQTRGHEVVVVDDERCKKIMKQFIDERPQDWFEDIGEASEPFKNVYLLPQTNQLLGLYTIIRNKNTTRPDFIFYSDRIIRLLVEEGLNHLPVQKQIVETDTNENFEGVSFMGKICGVSIVRAGESMEQGLRDCCRSVRIGKILIQRDEETALPKLFYEKLPEDISERYVFLLDPMLATGGSAIMATEVLIKRGVKPERIYFLNLICSKEGIEKYHAAFPEVRIVTGALDRGLDENKYLVPGLGDFGDRYYCVLEHHHHHH
notes: Control fusion without RGD4C
In the case of B4, the binding result with integrin αvβ3 receptor [9] is reported as “no binding”.

B5: DTPA-RGD4C-yCD (other)
chain: MACDCRGDCFCVTGGMASKWDQKGMDIAYEEAALGYKEGGVPIGGCLINNKDGSVLGRGHNMRFQKGSATLHGEISTLENCGRLEGKVYKDTTLYTTLSPCDMCTGAIIMYGIPRCVVGENVNFKSKGEKYLQTRGHEVVVVDDERCKKIMKQFIDERPQDWFEDIGELEHHHHHH
modifications: DTPA on primary amines, 0.94 DTPA per protein on average
Regarding B5, the Kd in the assay with integrin αvβ3 receptor [10] and in the assay with integrin αvβ3 receptor [11] was 0.0476 µM each time.

B6: RGD4C-EcCD_WT (other)
chain: MGCDCRGDCFCMSNNALQTIINARLPGEEGLWQIHLQDGKISAIDAQSGVMPITENSLDAEQGLVIPPFVEPHIHLDTTQTAGQPNWNQSGTLFEGIERWAERKALLTHDDVKQRAWQTLKWQIANGIQHVRTHVDVSDATLTALKAMLEVKQEVAPWIDLQIVAFPQEGILSYPNGEALLEEALRLRADVVGAIPHFEFTREYGVESLHKTFALAQKYDRLIDVHCDEIDDEQSRFVETVAALAHHEGMGARVTASHTTAMHSYNGAYTSRLFRLLKMSGINFVANPLVNIHLQGRFDTYPKRRGITRVKEMLESGINVCFGHDDVFDPWYPLGTANMLQVLHMGLHVCQLMGYGQINDGLNLITHHSARTLNLQDYGIAAGNSANLIILPAENGFDALRRQVPVRYSVRGGKVIASTQPAQTTVYLEQPEAIDYKRLEHHHHHH
notes: Fusion of the RGD4C peptide with E. coli cytosine deaminase; His6-tagged
For the molecule B6, the “fold binding ability against MCF-7” value is 16.1 fold in assay [3] and 23.7 fold in assay [7]. For the same molecule, the “protein reaction concentration IC50 of cytotoxic effect, MTT, HUVEC cells, 100 µM 5-FC” value in [12] was found to be 0.0229 µM. For the same molecule, in assay [12], the “protein reaction concentration IC50 of cytotoxic effect, MTT, U87MG cells, 100 µM 5-FC” value is 0.0385 µM. Further, the Kd is 0.007 µM in the assay with integrin αvβ3 receptor [13], 0.0138 µM in [15], 0.327 µM in assay [16] and 0.0203 µM in assay [17]. In assay [14], the “IC50 of 5-FC, MTT cytotoxicity, HUVEC cells incubated with 50 nM protein then washed” value came out at 35.9 µM. Further, the “IC50 of 5-FC, MTT cytotoxicity, MCF-7 cells (low αvβ3) incubated with 50 nM protein then washed” value in assay [14] was > 10000 µM. In addition, the “IC50 of 5-FC, MTT cytotoxicity, U87MG cells incubated with 50 nM protein then washed” value in [14] was found to be 44.1 µM.

B7: RGD4C-EcCD_D314A (other)
chain: B6 chain with D326A
notes: Fusion of the RGD4C peptide with the E. coli cytosine deaminase D314A mutant; His6-tagged
B7: the results for the “fold binding ability against MCF-7” value in assay [3] and in assay [7] were 12.9 fold and 19.9 fold, respectively. Also, in assay [12], the “protein reaction concentration IC50 of cytotoxic effect, MTT, HUVEC cells, 100 µM 5-FC” value was determined as 0.0098 µM. The “protein reaction concentration IC50 of cytotoxic effect, MTT, U87MG cells, 100 µM 5-FC” value in assay [12] is 0.004 µM. The Kd in the assay with integrin αvβ3 receptor [13] was found to be 0.0091 µM; in assay [15], 0.0151 µM; in [16], 0.3 µM; in assay [17], 0.0233 µM. In addition, the “IC50 of 5-FC, MTT cytotoxicity, HUVEC cells incubated with 50 nM protein then washed” value in assay [14] stood at 8.2 µM. In addition, the “IC50 of 5-FC, MTT cytotoxicity, MCF-7 cells (low αvβ3) incubated with 50 nM protein then washed” value in assay [14] is > 10000 µM. Besides, the “IC50 of 5-FC, MTT cytotoxicity, U87MG cells incubated with 50 nM protein then washed” value in assay [14] came out at 5 µM.

B8: yeast cytosine deaminase (yCD) (enzyme)
chain: MVVTGGMASKWDQKGMDIAYEEAALGYKEGGVPIGGCLINNKDGSVLGRGHNMRFQKGSATLHGEISTLENCGRLEGKVYKDTTLYTTLSPCDMCTGAIIMYGIPRCVVGENVNFKSKGEKYLQTRGHEVVVVDDERCKKIMKQFIDERPQDWFEDIGELEHHHHHH
notes: Recombinant, from pET28a(+), detected by its His6 tag
Regarding B8, the binding result with integrin αvβ3 receptor [9] is listed as “no binding”.
